Source: PMC3701619, “High Levels of DegU-P Activate an Esat-6-Like Secretion System in Bacillus subtilis” (PLoS ONE, 2013)

B1: YukE-His6 (natural protein, B. subtilis, UniProt C0SP85 1-97, looked up)
chain: MAGLIRVTPEELRAMAKQYGVESQEVLNQVDRLNRMISDLKSMWEGASSEAFADQYEQLKPSFIKMSDLLQDVNQQLDQTANTLESTDQDIANQIRG
notes: YukE, WXG100 protein of Bacillus subtilis; YukE-His6 is 12.17 kDa; The vector may add linker residues between YukE and the His6 tag; The vector is named pIVEX3.2d once and pIVEX2.3d once; also called recombinant YukE; YukE C-terminally tagged with a hexahistidine tail; not shown: His6, C-terminal, kept
B2: native YukE (natural protein, UniProt C0SP85 1-97, looked up)
chain: MAGLIRVTPEELRAMAKQYGVESQEVLNQVDRLNRMISDLKSMWEGASSEAFADQYEQLKPSFIKMSDLLQDVNQQLDQTANTLESTDQDIANQIRG
notes: YukE, WXG100 protein of Bacillus subtilis, as secreted to the culture medium; predicted mass of the native dimer ~22 kDa; the protein here is from an ATCC 6051 derivative; also called YukE present in a concentrated culture supernatant of strain W654

Experiments:
[1] = target: the molecule itself; experiment: cross-linking; pure YukE-His6 (0.4 to 10.3 uM with 0.25 mM BS3; 20 to 84 uM with 1 mM BS3) in YukE buffer (50 mM HEPES-Na pH 7.0, 300 mM NaCl), 30 min at room temperature; 15% SDS-PAGE, Coomassie staining or Western blot with anti-YukE-His6
[2] = target: the molecule itself; experiment: cross-linking; concentrated, dialysed (25 mM HEPES pH 7, 250 mM NaCl) cell-free supernatant of a W654 culture at T2, 2.5 ug total protein, 1 mM or 5 mM BS3, 30 min at room temperature; Western blot with anti-YukE-His6

| Protein | stoichiometry N [1] | stoichiometry N [2] |
| --- | --- | --- |
| B1 | 2 | – |
| B2 | – | 2 |
